Tests used:
P7mS = target: T1, P7mS; test: two-hybrid library CCNG1;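 note: natural log of median RNA to DNA barcode read ratio; higher means stronger binding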
T1 chain: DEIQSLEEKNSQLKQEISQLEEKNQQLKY

P6mS = target: T2, P6mS; test: two-hybrid library CCNG1;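 note: natural log of median RNA to DNA barcode read ratio; higher means stronger binding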
T2 chain: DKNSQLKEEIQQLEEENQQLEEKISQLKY

P8mS = target: T3, P8mS; test: two-hybrid library CCNG1;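 note: natural log of median RNA to DNA barcode read ratio; higher means stronger binding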
T3 chain: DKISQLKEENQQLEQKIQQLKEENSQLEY

P9mS = target: T4, P9mS; test: two-hybrid library CCNG1;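 note: natural log of median RNA to DNA barcode read ratio; higher means stronger binding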
T4 chain: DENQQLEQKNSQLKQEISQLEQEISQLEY

4H2991-AA = target: T5, 4H2991-AA; test: two-hybrid library CCmax; details: mean of both orientations;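 note: natural log of median RNA to DNA barcode read ratio; higher means stronger binding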
T5 chain: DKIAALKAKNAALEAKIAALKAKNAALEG

4H3066-AA = target: T6, 4H3066-AA; test: two-hybrid library CCmax; details: mean of both orientations;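 note: natural log of median RNA to DNA barcode read ratio; higher means stronger binding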
T6 chain: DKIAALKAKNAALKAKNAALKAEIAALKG

4H478-AA = target: T7, 4H478-AA; test: two-hybrid library CCmax; details: mean of both orientations
T7 chain: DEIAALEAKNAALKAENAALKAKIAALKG

4H1391-AA = target: T8, 4H1391-AA; test: two-hybrid library CCmax
T8 chain: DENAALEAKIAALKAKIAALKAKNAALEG

4H1854-AA = target: T9, 4H1854-AA; test: two-hybrid library CCmax; details: mean of both orientations
T9 chain: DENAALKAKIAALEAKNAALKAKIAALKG

4H3121-AA = target: T10, 4H3121-AA; test: two-hybrid library CCmax; details: mean of both orientations
T10 chain: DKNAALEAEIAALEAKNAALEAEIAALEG

4H3417-AA = target: T11, 4H3417-AA; test: two-hybrid library CCmax; details: mean of both orientations
T11 chain: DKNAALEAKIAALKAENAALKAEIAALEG

4H146-AA = target: T12, 4H146-AA; test: two-hybrid library CCmax; details: mean of both orientations
T12 chain: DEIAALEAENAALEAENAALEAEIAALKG

4H2742-AA = target: T13, 4H2742-AA; test: two-hybrid library CCmax
T13 chain: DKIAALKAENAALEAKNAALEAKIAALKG

4H189-AA = target: T14, 4H189-AA; test: two-hybrid library CCmax; details: mean of both orientations
T14 chain: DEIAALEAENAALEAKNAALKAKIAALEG

4H3920-AA = target: T15, 4H3920-AA; test: two-hybrid library CCmax; details: mean of both orientations
T15 chain: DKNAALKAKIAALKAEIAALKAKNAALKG

4H3709-AA = target: T16, 4H3709-AA; test: two-hybrid library CCmax; details: mean of both orientations
T16 chain: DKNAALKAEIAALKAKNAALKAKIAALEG

4H391-AA = target: T17, 4H391-AA; test: two-hybrid library CCmax; details: mean of both orientations
T17 chain: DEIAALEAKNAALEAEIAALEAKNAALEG

4H656-AA = target: T18, 4H656-AA; test: two-hybrid library CCmax; details: mean of both orientations
T18 chain: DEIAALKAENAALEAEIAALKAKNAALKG

4H3666-AA = target: T19, 4H3666-AA; test: two-hybrid library CCmax; details: mean of both orientations
T19 chain: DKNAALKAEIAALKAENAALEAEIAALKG

4H2283-AA = target: T20, 4H2283-AA; test: two-hybrid library CCmax; details: mean of both orientations
T20 chain: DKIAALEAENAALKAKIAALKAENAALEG

4H3029-AA = target: T21, 4H3029-AA; test: two-hybrid library CCmax; details: mean of both orientations
T21 chain: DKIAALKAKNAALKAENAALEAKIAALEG

4H3102-AA = target: T22, 4H3102-AA; test: two-hybrid library CCmax; details: mean of both orientations
T22 chain: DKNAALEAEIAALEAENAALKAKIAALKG

4H3446-AA = target: T23, 4H3446-AA; test: two-hybrid library CCmax; details: mean of both orientations
T23 chain: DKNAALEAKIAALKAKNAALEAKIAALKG

4H2713-AA = target: T24, 4H2713-AA; test: two-hybrid library CCmax; details: mean of both orientations
T24 chain: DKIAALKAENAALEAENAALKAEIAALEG

4H1809-AA = target: T25, 4H1809-AA; test: two-hybrid library CCmax; details: mean of both orientations
T25 chain: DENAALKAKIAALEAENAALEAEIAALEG

4H2248-AA = target: T26, 4H2248-AA; test: two-hybrid library CCmax; details: mean of both orientations
T26 chain: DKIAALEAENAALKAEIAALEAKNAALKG

4H3939-AA = target: T27, 4H3939-AA; test: two-hybrid library CCmax; details: mean of both orientations
T27 chain: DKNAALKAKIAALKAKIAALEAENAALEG

4H971-AA = target: T28, 4H971-AA; test: two-hybrid library CCmax; details: mean of both orientations
T28 chain: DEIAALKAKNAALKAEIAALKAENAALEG

4H2948-AA = target: T29, 4H2948-AA; test: two-hybrid library CCmax; details: mean of both orientations
T29 chain: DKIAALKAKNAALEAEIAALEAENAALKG

4H428-AA = target: T30, 4H428-AA; test: two-hybrid library CCmax; details: mean of both orientations
T30 chain: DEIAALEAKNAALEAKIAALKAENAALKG

4H3591-AA = target: T31, 4H3591-AA; test: two-hybrid library CCmax; details: mean of both orientations
T31 chain: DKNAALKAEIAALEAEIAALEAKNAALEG

4H497-AA = target: T32, 4H497-AA; test: two-hybrid library CCmax; details: mean of both orientations
T32 chain: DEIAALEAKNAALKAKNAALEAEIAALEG

4H675-AA = target: T33, 4H675-AA; test: two-hybrid library CCmax; details: mean of both orientations
T33 chain: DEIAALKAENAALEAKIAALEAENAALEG

4H3628-AA = target: T34, 4H3628-AA; test: two-hybrid library CCmax; details: mean of both orientations
T34 chain: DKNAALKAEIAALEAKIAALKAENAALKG

Binder DKNSQLKEEIQQLEEENQQLEEKISQLKY [P6mS] has an interaction score (P7mS) of -2.21, an interaction score (P6mS) of -0.275 and an interaction score (P8mS) of -0.784. The interaction score (P9mS) was -0.654.

For DENAALEAKIAALKAKIAALKAKNAALEG [4H1391-AA], the interaction score (4H2991-AA) was -2.12, the interaction score (4H3066-AA) was -1.99 and the interaction score (4H478-AA) was -1.53. It also gave an interaction score (4H1391-AA) of -0.77, an interaction score (4H1854-AA) of -1.81 and an interaction score (4H3121-AA) of -1.32. For the same binder, the interaction score (4H3417-AA) was -1.93, the interaction score (4H146-AA) was -1.65 and the interaction score (4H2742-AA) was -1.48. It also gave an interaction score (4H189-AA) of -1.54, an interaction score (4H3920-AA) of -0.296 and an interaction score (4H3709-AA) of -1.44. The interaction score (4H391-AA) was -1.36, the interaction score (4H656-AA) was -1.09 and the interaction score (4H3666-AA) was -1.8. For the same binder, the interaction score (4H2283-AA) was -1.61, the interaction score (4H3029-AA) was -1.41 and the interaction score (4H3102-AA) was -1.1. For the same binder, the interaction score (4H3446-AA) was -1.64, the interaction score (4H2713-AA) was -1.47 and the interaction score (4H1809-AA) was -0.868. It also gave an interaction score (4H2248-AA) of -1.32, an interaction score (4H3939-AA) of -1.09 and an interaction score (4H971-AA) of -1.37. The interaction score (4H2948-AA) was -1.19, the interaction score (4H428-AA) was -1.77 and the interaction score (4H3591-AA) was 2.15. It also gave an interaction score (4H497-AA) of -1.59, an interaction score (4H675-AA) of -1.62 and an interaction score (4H3628-AA) of 0.211.
